Source: publication PMC4722452
pKd: −log10 of the molar value.

Experiments:
Sos^CatW729E = Sos^CatW729E (UniProt Q07889); assay: other fluorescence titration; quenching of the intrinsic Trp fluorescence of Sos (10 μM) on adding Ras (1-50 μM) in Hepes buffer; excitation 295 nm, emission 336 nm; single-site quadratic fit; overall apparent (macroscopic) Kd
[1] = biological target: Sos^Cat (Son of Sevenless, residues 563-1049) (UniProt Q07889); assay: as above
[2] = biological target: Sos^Cat (Son of Sevenless, residues 563-1049) (UniProt Q07889); assay: NMR titration; 1H,13C HMQC of [13C-methyl-Met,Ile]Sos^Cat or Sos^CatW729E (60 μM) with unlabelled Ras added at Ras:Sos 0.5:1 to 4:1; 298 K; Met methyl reporter signals M726 (allosteric), M824 (catalytic), M714 (between)

Substance	pKd (Sos^CatW729E)	pKd [1]	apparent microscopic Kd, allosteric site (from the M726 signal shift) [2] [µM]
H-Ras·GTPγS (from UniProt P01112 1-166) (domain or fragment)	4.55	–	–
H-Ras·GDP (from UniProt P01112 1-166) (domain or fragment)	4.17	–	–
K-RasG12V·GTPγS (from UniProt P01116 1-166) (domain or fragment)	–	4.51	–
K-Ras·GTPγS (from UniProt P01116 1-166) (domain or fragment)	–	5.00	2
